Measurements taken from FireProtDB (doi:10.1021/bi00150a030).

Settings: Rattus norvegicus, pH 7, Fluorescence, Sodium-Potassium phosphate 0.1 M; for denaturant m value / denaturant midpoint (higher = more stable) / unfolding free energy: 15 °C, GdnHCl; for Tm / change of melting temperature, mutant - wild type (higher = more stable): Thermal

Chain of Cytochrome c, somatic P31A, P62898 (P62898 whole entry P31A): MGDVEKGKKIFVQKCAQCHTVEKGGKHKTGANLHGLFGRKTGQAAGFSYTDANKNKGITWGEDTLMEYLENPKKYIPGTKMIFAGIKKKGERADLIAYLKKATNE
Chain of Cytochrome c, somatic Y68F, P62898 (P62898 whole entry Y68F): as the sequence (P62898 whole entry P31A) above, with A31P, Y68F counted along it
Chain of Cytochrome c, somatic P31A|Y68F, P62898 P31A Y68F (P62898 whole entry P31A/Y68F): as the sequence (P62898 whole entry P31A) above, with Y68F counted along it
Chain of Cytochrome c, somatic wild type, P62898 (P62898 whole entry): as the sequence (P62898 whole entry P31A) above, with A31P counted along it

Substance	denaturant m value (structure 1I5T) [kcal/mol/M]	denaturant midpoint (higher = more stable) (structure 1I5T) [M]	unfolding free energy (structure 1I5T) [kcal/mol]	Tm (structure 1I5T) [°C]	change of melting temperature, mutant - wild type (higher = more stable) (structure 1I5T) [°C]	denaturant m value [kcal/mol/M]	denaturant midpoint (higher = more stable) [M]	unfolding free energy [kcal/mol]	Tm [°C]
Cytochrome c, somatic P31A, P62898	0.7	5.38	3.76	51	-9	–	–	–	–
Cytochrome c, somatic wild type, P62898	–	–	–	–	–	1.21	7.6	9.15	60
Cytochrome c, somatic P31A|Y68F, P62898 P31A Y68F	1.16	5.81	6.74	62	2	–	–	–	–
Cytochrome c, somatic Y68F, P62898	0.86	8.33	7.19	90	30	–	–	–	–
